# Legend:
# TAT-Troponin [1] = experiment: BLI
# TAT-Troponin [2] = experiment: BLI; after the dissociation phase the sensors (1000 nM analyte samples) were moved into binding buffer with 10 mM EDTA, nm shift measured for 300 s; 25°C
substance,measurement,setting,value
Troponin inhibitory peptide-myoglobin,kon,TAT-Troponin [1],3700 M⁻¹ s⁻¹
same,koff (EDTA),TAT-Troponin [2],0.018 s⁻¹
